{
  "source": "the supplement of paper PMC9112550",
  "about": "“Optimization of the antimicrobial peptide Bac7 by deep mutational scanning” (BMC Biology, 2022);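 further: peptides expressed intracellularly from a pBAD plasmid library in pooled LB shake-flask culture, induced with 0.3% L-arabinose, DNA abundance read by NGS, three biological replicates, DESeq2 with apeglm shrinkage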",
  "data": [
    {"system": "Escherichia coli TOP10", "experiment": "shrunken log2 fold change of peptide-encoding DNA abundance (4.5 h post-induction vs induction); higher = less antimicrobial activity (less host growth inhibition)", "conditions": "time post-induction: 4.5 h; library: site-saturation at positions 5, 18, 19, 20", "values": [
      {"sequence": "RRIRGRPPRLPRPRPRPMWQPRP", "shrunken log2 fold change": 0.418},
      {"sequence": "RRIRGRPPRLPRPRPRPMYKPRP", "shrunken log2 fold change": 0.0271},
      {"sequence": "RRIRGRPPRLPRPRPRPMYWPRP", "shrunken log2 fold change": -0.0689},
      {"sequence": "RRIRGRPPRLPRPRPRPNACPRP", "shrunken log2 fold change": 0.212},
      {"sequence": "RRIRGRPPRLPRPRPRPNAPPRP", "shrunken log2 fold change": 0.938},
      {"sequence": "RRIRGRPPRLPRPRPRPNARPRP", "shrunken log2 fold change": 0.501},
      {"sequence": "RRIRGRPPRLPRPRPRPNDYPRP", "shrunken log2 fold change": -0.0119},
      {"sequence": "RRIRGRPPRLPRPRPRPNFGPRP", "shrunken log2 fold change": 0.128},
      {"sequence": "RRIRGRPPRLPRPRPRPNFHPRP", "shrunken log2 fold change": 0.611},
      {"sequence": "RRIRGRPPRLPRPRPRPNGKPRP", "shrunken log2 fold change": 0.311},
      {"sequence": "RRIRGRPPRLPRPRPRPNGTPRP", "shrunken log2 fold change": 0.54},
      {"sequence": "RRIRGRPPRLPRPRPRPNIHPRP", "shrunken log2 fold change": 0.0679},
      {"sequence": "RRIRGRPPRLPRPRPRPNITPRP", "shrunken log2 fold change": 0.315},
      {"sequence": "RRIRGRPPRLPRPRPRPNIWPRP", "shrunken log2 fold change": 0.373},
      {"sequence": "RRIRGRPPRLPRPRPRPNKLPRP", "shrunken log2 fold change": -0.096},
      {"sequence": "RRIRGRPPRLPRPRPRPNLMPRP", "shrunken log2 fold change": 0.144},
      {"sequence": "RRIRGRPPRLPRPRPRPNMFPRP", "shrunken log2 fold change": 0.351},
      {"sequence": "RRIRGRPPRLPRPRPRPNMRPRP", "shrunken log2 fold change": 1.08},
      {"sequence": "RRIRGRPPRLPRPRPRPNNFPRP", "shrunken log2 fold change": 0.291},
      {"sequence": "RRIRGRPPRLPRPRPRPNNMPRP", "shrunken log2 fold change": -0.317},
      {"sequence": "RRIRGRPPRLPRPRPRPNNRPRP", "shrunken log2 fold change": -0.112},
      {"sequence": "RRIRGRPPRLPRPRPRPNPNPRP", "shrunken log2 fold change": 0.215},
      {"sequence": "RRIRGRPPRLPRPRPRPNRAPRP", "shrunken log2 fold change": 0.43},
      {"sequence": "RRIRGRPPRLPRPRPRPNSMPRP", "shrunken log2 fold change": 0.0537},
      {"sequence": "RRIRGRPPRLPRPRPRPNSTPRP", "shrunken log2 fold change": 0.344},
      {"sequence": "RRIRGRPPRLPRPRPRPNTCPRP", "shrunken log2 fold change": 0.103},
      {"sequence": "RRIRGRPPRLPRPRPRPNTMPRP", "shrunken log2 fold change": 0.0452},
      {"sequence": "RRIRGRPPRLPRPRPRPNWCPRP", "shrunken log2 fold change": -0.0123},
      {"sequence": "RRIRGRPPRLPRPRPRPNWFPRP", "shrunken log2 fold change": 0.469},
      {"sequence": "RRIRGRPPRLPRPRPRPNWMPRP", "shrunken log2 fold change": -0.194},
      {"sequence": "RRIRGRPPRLPRPRPRPNYWPRP", "shrunken log2 fold change": -0.115},
      {"sequence": "RRIRGRPPRLPRPRPRPPACPRP", "shrunken log2 fold change": 1.36},
      {"sequence": "RRIRGRPPRLPRPRPRPPAPPRP", "shrunken log2 fold change": 1.6},
      {"sequence": "RRIRGRPPRLPRPRPRPPCFPRP", "shrunken log2 fold change": 0.456},
      {"sequence": "RRIRGRPPRLPRPRPRPPDIPRP", "shrunken log2 fold change": 0.514},
      {"sequence": "RRIRGRPPRLPRPRPRPPFKPRP", "shrunken log2 fold change": 0.659},
      {"sequence": "RRIRGRPPRLPRPRPRPPHWPRP", "shrunken log2 fold change": 0.96},
      {"sequence": "RRIRGRPPRLPRPRPRPPINPRP", "shrunken log2 fold change": 0.21},
      {"sequence": "RRIRGRPPRLPRPRPRPPIPPRP", "shrunken log2 fold change": 0.449},
      {"sequence": "RRIRGRPPRLPRPRPRPPKCPRP", "shrunken log2 fold change": 1.63},
      {"sequence": "RRIRGRPPRLPRPRPRPPLNPRP", "shrunken log2 fold change": 0.789},
      {"sequence": "RRIRGRPPRLPRPRPRPPLQPRP", "shrunken log2 fold change": 0.641},
      {"sequence": "RRIRGRPPRLPRPRPRPPLTPRP", "shrunken log2 fold change": 0.971},
      {"sequence": "RRIRGRPPRLPRPRPRPPLWPRP", "shrunken log2 fold change": 1.09},
      {"sequence": "RRIRGRPPRLPRPRPRPPMLPRP", "shrunken log2 fold change": 0.555},
      {"sequence": "RRIRGRPPRLPRPRPRPPNEPRP", "shrunken log2 fold change": 0.947},
      {"sequence": "RRIRGRPPRLPRPRPRPPNFPRP", "shrunken log2 fold change": 0.0696},
      {"sequence": "RRIRGRPPRLPRPRPRPPNWPRP", "shrunken log2 fold change": 0.862},
      {"sequence": "RRIRGRPPRLPRPRPRPPPAPRP", "shrunken log2 fold change": 1.57},
      {"sequence": "RRIRGRPPRLPRPRPRPPPKPRP", "shrunken log2 fold change": 1.7},
      {"sequence": "RRIRGRPPRLPRPRPRPPQLPRP", "shrunken log2 fold change": 0.824},
      {"sequence": "RRIRGRPPRLPRPRPRPPSAPRP", "shrunken log2 fold change": 1.07},
      {"sequence": "RRIRGRPPRLPRPRPRPPSEPRP", "shrunken log2 fold change": 0.856},
      {"sequence": "RRIRGRPPRLPRPRPRPPTGPRP", "shrunken log2 fold change": 0.741},
      {"sequence": "RRIRGRPPRLPRPRPRPPTHPRP", "shrunken log2 fold change": 0.617},
      {"sequence": "RRIRGRPPRLPRPRPRPPVAPRP", "shrunken log2 fold change": 1.22},
      {"sequence": "RRIRGRPPRLPRPRPRPPVPPRP", "shrunken log2 fold change": 0.82},
      {"sequence": "RRIRGRPPRLPRPRPRPPVRPRP", "shrunken log2 fold change": 0.859},
      {"sequence": "RRIRGRPPRLPRPRPRPPWAPRP", "shrunken log2 fold change": 0.769},
      {"sequence": "RRIRGRPPRLPRPRPRPPWYPRP", "shrunken log2 fold change": 0.26},
      {"sequence": "RRIRGRPPRLPRPRPRPQAFPRP", "shrunken log2 fold change": 0.112},
      {"sequence": "RRIRGRPPRLPRPRPRPQCMPRP", "shrunken log2 fold change": 0.403},
      {"sequence": "RRIRGRPPRLPRPRPRPQDCPRP", "shrunken log2 fold change": 0.0863},
      {"sequence": "RRIRGRPPRLPRPRPRPQDFPRP", "shrunken log2 fold change": 0.178},
      {"sequence": "RRIRGRPPRLPRPRPRPQDTPRP", "shrunken log2 fold change": 0.0614},
      {"sequence": "RRIRGRPPRLPRPRPRPQFAPRP", "shrunken log2 fold change": 0.273},
      {"sequence": "RRIRGRPPRLPRPRPRPQFCPRP", "shrunken log2 fold change": 0.719},
      {"sequence": "RRIRGRPPRLPRPRPRPQFKPRP", "shrunken log2 fold change": 0.0112},
      {"sequence": "RRIRGRPPRLPRPRPRPQGNPRP", "shrunken log2 fold change": 0.236},
      {"sequence": "RRIRGRPPRLPRPRPRPQHCPRP", "shrunken log2 fold change": 0.0523},
      {"sequence": "RRIRGRPPRLPRPRPRPQHKPRP", "shrunken log2 fold change": -0.00366},
      {"sequence": "RRIRGRPPRLPRPRPRPQHLPRP", "shrunken log2 fold change": -0.054},
      {"sequence": "RRIRGRPPRLPRPRPRPQHTPRP", "shrunken log2 fold change": 0.588},
      {"sequence": "RRIRGRPPRLPRPRPRPQITPRP", "shrunken log2 fold change": 0.25},
      {"sequence": "RRIRGRPPRLPRPRPRPQIVPRP", "shrunken log2 fold change": 0.12}
    ]}
  ]
}
